Drawing on PMC6677536 (2019), this text covers log10 ratio (log10 coIP index [arbitrary unit]) for five substances.

Chain of Full-length Nxf2, 3xFLAG-tagged (from UniProt Q9VV73) aa755-758 (NTF2 mut.3) (Q9VV73 whole entry, change not shown, the tested form may be a part): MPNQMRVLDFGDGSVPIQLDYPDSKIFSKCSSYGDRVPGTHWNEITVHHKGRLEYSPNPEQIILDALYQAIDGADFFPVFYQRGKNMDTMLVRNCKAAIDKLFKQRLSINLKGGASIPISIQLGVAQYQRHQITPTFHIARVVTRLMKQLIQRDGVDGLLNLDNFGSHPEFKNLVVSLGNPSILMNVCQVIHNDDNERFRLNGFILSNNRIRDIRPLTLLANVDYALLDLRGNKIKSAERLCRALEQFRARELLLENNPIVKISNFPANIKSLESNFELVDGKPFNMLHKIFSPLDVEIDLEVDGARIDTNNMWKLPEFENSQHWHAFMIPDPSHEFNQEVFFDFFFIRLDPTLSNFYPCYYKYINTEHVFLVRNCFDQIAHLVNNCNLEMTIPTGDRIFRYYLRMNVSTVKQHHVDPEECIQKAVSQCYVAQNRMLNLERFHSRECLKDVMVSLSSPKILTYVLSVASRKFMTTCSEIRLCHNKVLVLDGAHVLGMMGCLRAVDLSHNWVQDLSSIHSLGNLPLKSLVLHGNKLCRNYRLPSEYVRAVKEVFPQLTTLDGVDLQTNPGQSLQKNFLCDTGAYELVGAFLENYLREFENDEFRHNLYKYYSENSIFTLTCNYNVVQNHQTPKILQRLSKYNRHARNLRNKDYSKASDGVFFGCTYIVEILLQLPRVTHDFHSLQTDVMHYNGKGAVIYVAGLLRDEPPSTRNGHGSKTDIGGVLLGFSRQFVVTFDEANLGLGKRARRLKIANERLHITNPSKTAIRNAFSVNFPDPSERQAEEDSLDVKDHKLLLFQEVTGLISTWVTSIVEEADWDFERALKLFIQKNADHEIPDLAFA
Chain of Full-length Nxf2, 3xFLAG-tagged (from UniProt Q9VV73) aa751-754 (NTF2 mut.1) (Q9VV73 whole entry, change not shown, the tested form may be a part): as above
Chain of Full-length Nxf2, 3xFLAG-tagged (from UniProt Q9VV73) aa754-756 (NTF2 mut.2) (Q9VV73 whole entry, change not shown, the tested form may be a part): as above
Chain of Full-length Nxf2, 3xFLAG-tagged (from UniProt Q9VV73) aa835-836 (UBA mut.2) (Q9VV73 whole entry, change not shown, the tested form may be a part): as above
Chain of Full-length Nxf2, 3xFLAG-tagged (from UniProt Q9VV73) aa811-814 (UBA mut.1) (Q9VV73 whole entry, change not shown, the tested form may be a part): as above

For the experiment, the target named is Full-length Panx, HA-tagged (UniProt Q9W2H9). Briefly: FLAG-tag co-immunoprecipitation, western blot quantification. The note with it: lysates of transfected S2 cells; parent: est. 0; read off a plot. On the technique in general: Immunoblotting shows a protein as a band on a membrane.
Chain of Full-length Panx, HA-tagged (Q9W2H9 whole entry, the tested form may be a part): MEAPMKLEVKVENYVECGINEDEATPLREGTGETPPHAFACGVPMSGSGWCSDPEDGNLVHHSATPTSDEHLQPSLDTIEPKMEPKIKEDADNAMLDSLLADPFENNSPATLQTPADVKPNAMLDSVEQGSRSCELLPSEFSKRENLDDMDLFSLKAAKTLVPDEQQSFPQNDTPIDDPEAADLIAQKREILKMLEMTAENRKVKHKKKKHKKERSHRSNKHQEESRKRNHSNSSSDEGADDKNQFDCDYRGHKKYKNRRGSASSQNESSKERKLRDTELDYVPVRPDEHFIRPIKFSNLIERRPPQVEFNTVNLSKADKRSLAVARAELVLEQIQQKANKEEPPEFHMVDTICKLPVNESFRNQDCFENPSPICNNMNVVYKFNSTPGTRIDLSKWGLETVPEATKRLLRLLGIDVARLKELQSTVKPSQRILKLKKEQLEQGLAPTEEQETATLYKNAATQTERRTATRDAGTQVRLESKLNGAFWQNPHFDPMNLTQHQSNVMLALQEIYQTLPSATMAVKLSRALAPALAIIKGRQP
In the case of “Full-length Nxf2, 3xFLAG-tagged (from UniProt Q9VV73) aa751-754 (NTF2 mut.1)”, the log10 ratio (log10 coIP index [arbitrary unit]) is -0.55.
The result for “Full-length Nxf2, 3xFLAG-tagged (from UniProt Q9VV73) aa754-756 (NTF2 mut.2)” reads -0.32.
Next, “Full-length Nxf2, 3xFLAG-tagged (from UniProt Q9VV73) aa755-758 (NTF2 mut.3)”: -0.3; “Full-length Nxf2, 3xFLAG-tagged (from UniProt Q9VV73) aa811-814 (UBA mut.1)”: -1.3; “Full-length Nxf2, 3xFLAG-tagged (from UniProt Q9VV73) aa835-836 (UBA mut.2)”: -0.5.
